Values joined by “and” are separate entries in the source; they are usually repeats but may differ in a detail not shown here. Identical values can stand only once.
What was measured:
human C1q [1] = molecular target: T1, human C1q (human, UniProt P02745 23-245; P02746 28-253; P02747 29-245); assay: cell-based or functional assay
C1q = C1q (Native C1q is a hexamer of A-B-C heterotrimers (18 chains); one chain of each kind is given. The collagen-like regions carry hydroxyproline and hydroxylysine.); assay: cell-based or functional assay
C1q (Native C1q is a hexamer of A-B-C heterotrimers (18 chains); one chain of each kind is given. The collagen-like regions carry hydroxyproline and hydroxylysine.), sequence (A chain, as listed by the source limits assumed, form in doubt, chain 1 of 3): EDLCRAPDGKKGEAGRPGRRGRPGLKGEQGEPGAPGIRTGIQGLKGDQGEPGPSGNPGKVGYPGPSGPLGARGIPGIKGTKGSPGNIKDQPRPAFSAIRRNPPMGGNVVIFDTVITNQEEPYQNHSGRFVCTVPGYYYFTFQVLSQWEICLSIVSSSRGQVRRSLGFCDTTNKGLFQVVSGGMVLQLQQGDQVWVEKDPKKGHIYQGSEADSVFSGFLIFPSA
C1q (Native C1q is a hexamer of A-B-C heterotrimers (18 chains); one chain of each kind is given. The collagen-like regions carry hydroxyproline and hydroxylysine.), sequence (B chain, as listed by the source limits assumed, form in doubt, chain 2 of 3): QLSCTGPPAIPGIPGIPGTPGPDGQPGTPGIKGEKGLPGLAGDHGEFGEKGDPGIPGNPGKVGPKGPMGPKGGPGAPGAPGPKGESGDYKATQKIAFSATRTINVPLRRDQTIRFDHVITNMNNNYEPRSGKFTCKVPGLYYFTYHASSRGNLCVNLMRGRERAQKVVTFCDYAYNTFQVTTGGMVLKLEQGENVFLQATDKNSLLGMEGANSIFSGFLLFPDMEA
C1q (Native C1q is a hexamer of A-B-C heterotrimers (18 chains); one chain of each kind is given. The collagen-like regions carry hydroxyproline and hydroxylysine.), sequence (C chain, as listed by the source limits assumed, form in doubt, chain 3 of 3): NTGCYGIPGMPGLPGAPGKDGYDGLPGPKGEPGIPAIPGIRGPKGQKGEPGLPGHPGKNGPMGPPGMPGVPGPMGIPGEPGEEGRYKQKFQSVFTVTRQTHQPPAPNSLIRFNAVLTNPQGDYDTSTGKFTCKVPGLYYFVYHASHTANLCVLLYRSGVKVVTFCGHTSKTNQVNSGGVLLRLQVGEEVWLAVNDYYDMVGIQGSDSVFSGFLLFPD

human C1q [2] = molecular target: T1, human C1q; assay: one-sided ELISA on human C1q, detection with enzyme-tagged anti-human-Fc or anti-human kappa antibody
Description: Binding of Mab2-Fab, FabA and Mab2 to human C1q in a one-sided ELISA. Bound antibody or Fab molecules were detected using an enzyme-tagged anti-human-Fc or anti-human kappa antibody followed by enzyme substrate.

T1 sequence (P02745 23-245 limits assumed, chain 1 of 3): as the sequence (A chain, as listed by the source limits assumed, form in doubt, chain 1 of 3) above
T1 sequence (P02746 28-253 limits assumed, chain 2 of 3): as the sequence (B chain, as listed by the source limits assumed, form in doubt, chain 2 of 3) above
T1 sequence (P02747 29-245 limits assumed, chain 3 of 3): as the sequence (C chain, as listed by the source limits assumed, form in doubt, chain 3 of 3) above

- IC50 of inhibition of the classical pathway (IgM-coated wells, C5b-9 detection, Weislab ELISA kit) (C1q): ≤ 300 ng/mL
- EC50 (human C1q [2]): 2.5 ng/mL
B1: FabA (Fab)
heavy: QVQLVQSGAELKKPGASVKVSCKSSGYHFTSYWMHWVKQAPGQGLEWIGVIHPNSGSINYNEKFESRVTITVDKSTSTAYMELSSLRSEDTAVYYCAGERDSTEVLPMDYWGQGTTVTVSSASTKGPSVFPLAPSSKSTSGGTAALGCLVKDYFPEPVTVSWNSGALTSGVHTFPAVLQSSGLYSLSSVVTVPSSSLGTQTYICNVNHKPSNTKVDKKVEPKSCDKTHT
light: DVQITQSPSSLSASLGERATINCRASKSINKYLAWYQQKPGKAPKLLIYSGSTLQSGIPARFSGSGSGTDFTLTISSLEPEDFAMYYCQQHNEYPLTFGQGTKLEIKRTVAAPSVFIFPPSDEQLKSGTASVVCLLNNFYPREAKVQWKVDNALQSGNSQESVTEQDSKDSTYSLSSTLTLSKADYEKHKVYACEVTHQGLSSPVTKSFNRGEC
notes: Recombinant humanized IgG1 Fab; also called anti-C1q Fab; anti-C1q antibody Fab fragment
- half maximal inhibitory concentration (IC50) of inhibition of IgM-coated RBC hemolysis in human serum (human C1q [1]): 0.62 µg/mL and ~12 nM
